Laboratory results reported in patent US20140193915, “COMPOSITIONS AND METHODS FOR CUSTOM SITE-SPECIFIC DNA RECOMBINASES” (Monsanto Technology, LLC, published 2014).

T1: sN-TALER IV-1 (GinH106Y-TALE13) (synthetic)
T1 chain: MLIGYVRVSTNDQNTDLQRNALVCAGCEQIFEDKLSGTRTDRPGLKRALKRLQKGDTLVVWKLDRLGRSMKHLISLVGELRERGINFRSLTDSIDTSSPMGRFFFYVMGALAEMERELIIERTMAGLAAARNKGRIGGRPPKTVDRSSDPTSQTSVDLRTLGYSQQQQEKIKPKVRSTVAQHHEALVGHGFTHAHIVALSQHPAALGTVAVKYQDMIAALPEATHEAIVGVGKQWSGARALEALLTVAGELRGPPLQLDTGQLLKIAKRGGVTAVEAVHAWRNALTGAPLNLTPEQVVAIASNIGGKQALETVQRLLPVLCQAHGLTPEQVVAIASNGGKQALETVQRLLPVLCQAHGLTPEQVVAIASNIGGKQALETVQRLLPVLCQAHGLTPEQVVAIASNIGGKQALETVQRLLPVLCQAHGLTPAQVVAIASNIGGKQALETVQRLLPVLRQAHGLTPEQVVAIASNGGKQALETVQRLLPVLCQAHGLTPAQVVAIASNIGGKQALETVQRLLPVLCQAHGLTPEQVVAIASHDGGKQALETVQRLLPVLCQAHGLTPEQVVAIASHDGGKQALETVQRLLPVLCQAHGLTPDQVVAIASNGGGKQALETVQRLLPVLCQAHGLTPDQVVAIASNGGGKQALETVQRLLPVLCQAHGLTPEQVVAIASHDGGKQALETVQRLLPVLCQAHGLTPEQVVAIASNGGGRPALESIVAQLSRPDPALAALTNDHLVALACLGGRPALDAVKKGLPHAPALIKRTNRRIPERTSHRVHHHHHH

T2: sN-TALER IV-5 (synthetic)
T2 chain: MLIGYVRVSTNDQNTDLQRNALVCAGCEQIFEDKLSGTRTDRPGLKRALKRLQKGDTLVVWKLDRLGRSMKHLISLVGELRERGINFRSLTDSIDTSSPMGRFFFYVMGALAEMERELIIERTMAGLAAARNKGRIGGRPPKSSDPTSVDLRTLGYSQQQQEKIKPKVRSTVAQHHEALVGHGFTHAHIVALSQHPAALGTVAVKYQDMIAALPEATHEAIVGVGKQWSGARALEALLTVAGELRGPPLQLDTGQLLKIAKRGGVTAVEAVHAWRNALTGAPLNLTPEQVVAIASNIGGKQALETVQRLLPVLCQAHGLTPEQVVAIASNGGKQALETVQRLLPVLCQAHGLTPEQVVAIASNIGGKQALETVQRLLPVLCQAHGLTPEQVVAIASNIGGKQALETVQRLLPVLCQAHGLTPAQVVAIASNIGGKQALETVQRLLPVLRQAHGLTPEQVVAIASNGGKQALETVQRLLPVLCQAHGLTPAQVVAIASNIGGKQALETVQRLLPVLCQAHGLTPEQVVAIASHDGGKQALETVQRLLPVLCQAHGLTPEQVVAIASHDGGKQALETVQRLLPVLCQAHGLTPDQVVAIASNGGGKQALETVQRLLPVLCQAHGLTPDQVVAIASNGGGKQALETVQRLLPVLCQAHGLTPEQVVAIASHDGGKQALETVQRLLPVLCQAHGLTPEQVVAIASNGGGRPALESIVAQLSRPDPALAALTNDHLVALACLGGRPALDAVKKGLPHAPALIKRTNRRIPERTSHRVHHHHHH

T3: sN-TALER IIb-1 (synthetic)
T3 chain: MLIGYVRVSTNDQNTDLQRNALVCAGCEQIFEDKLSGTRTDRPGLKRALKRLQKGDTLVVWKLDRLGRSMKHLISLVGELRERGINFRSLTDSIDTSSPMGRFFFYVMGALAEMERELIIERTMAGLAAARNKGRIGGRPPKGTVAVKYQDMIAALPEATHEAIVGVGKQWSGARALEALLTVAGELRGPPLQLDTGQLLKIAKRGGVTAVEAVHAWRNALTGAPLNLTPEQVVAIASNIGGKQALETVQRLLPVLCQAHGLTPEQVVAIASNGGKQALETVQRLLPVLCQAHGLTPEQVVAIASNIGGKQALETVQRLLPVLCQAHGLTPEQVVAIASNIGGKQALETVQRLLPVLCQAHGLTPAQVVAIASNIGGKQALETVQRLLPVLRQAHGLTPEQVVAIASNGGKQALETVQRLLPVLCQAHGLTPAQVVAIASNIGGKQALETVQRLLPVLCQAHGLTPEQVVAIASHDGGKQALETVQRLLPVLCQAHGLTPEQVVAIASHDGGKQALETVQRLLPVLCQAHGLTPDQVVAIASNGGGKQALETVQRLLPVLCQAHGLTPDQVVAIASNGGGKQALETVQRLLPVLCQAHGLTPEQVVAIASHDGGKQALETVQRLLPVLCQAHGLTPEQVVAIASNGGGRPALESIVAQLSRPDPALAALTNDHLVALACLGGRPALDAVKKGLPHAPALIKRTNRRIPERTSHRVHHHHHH


What was measured:
[1] = molecular target: T1, sN-TALER IV-1 (GinH106Y-TALE13); assay: cell_activity; E. coli; sequenced; conditions: tags: 6-His; chain copies: 2 per site, tetramer in synapsis (stated)
Method: To test for recombination, E. coli DH5alpha cells were co-transformed with different combinations of TALER expression construct and TALER reporter construct pairs (Tables 6 and 7). The N-TALER expression and reporter constructs were in an approximate 1:1 mass ratio during the transformation. The co-transformed bacteria were plated on media with chloramphenicol, kanamycin, and X-gal then incubated at 37° C. for 18 to 36 hours. Control samples consisted of transformations using the reporter construct alone. Control transformants were similarly plated. The bacterial transformation protocol was either heat shock or electroporation per standard molecular biology techniques.
PCR was used to confirm that the predicted recombination had occurred in colonies which were white or sectored. PCR primers were designed so that a PCR product of approximately 877 bp (depending on the length of the spacers) would be produced from the non-recombined reporter constructs, and a PCR product of approximately 470 bp would be produced from reporter constructs that had undergone N-TALER-mediated recombination. Standard colony PCR was performed on white, blue, and sectored colonies from several plates representing different pairs of N-TALER expression construct and reporter construct co-transformation combinations.
To confirm that the recombination occurred as predicted, several of the PCR products were sequenced. Sequencing results for PCR products generated from white colonies from the sN-TALER IV-1 and Gin18TALE+1; sN-TALER IV-1 and Gin20TALE+0; or sN-TALER IV-1 and Gin20TALE+10 reporter constructs are shown in FIG. 7. No mismatches were detected relative to the predicted recombinase core sequence in any of the PCR products sequenced thereby confirming a base-perfect recombination with N-TALERs (the few single-nucleotide mismatches detected in the sN-TALER IV-1 and Gin20TALE+0 combination were rechecked and consequently dismissed as sequencing error).

sN-TALER IV-5 = molecular target: T2, sN-TALER IV-5; assay: cell_activity; E. coli; conditions: tags: 6-His
Method in brief: (§1)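 DH5alpha cells co-transformed (heat shock or electroporation) with N-TALER expression and reporter plasmids at ~1:1 mass ratio; reporter alone as control. Plated on chloramphenicol/kanamycin/X-gal, grown 37° C. for 18 to 36 hours; recombination scored by colony colour.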

sN-TALER IIb-1 = molecular target: T3, sN-TALER IIb-1; assay: cell_activity; E. coli; conditions: tags: 6-His
Method in brief: as §1

Row | Binder | activity [1] [score] | activity (sN-TALER IV-5) [score] | activity (sN-TALER IIb-1) [score]
1 | Gin18TALE+1 (dsDNA) DNA 1: AGAAGGTATTTATATCCAAAACCATGGTTTACAATATAAATACCTTCT DNA 2: AGAAGGTATTTATATTGTAAACCATGGTTTTGGATATAAATACCTTCT | 1 |  | 
2 | Gin20TALE+0 (dsDNA) DNA 1: AGAAGGTATTTATATCCAAAACCATGGTTTACAGTATAAATACCTTCT DNA 2: AGAAGGTATTTATACTGTAAACCATGGTTTTGGATATAAATACCTTCT | 1 | 4.5 | 
3 | Gin18TALE+0 (dsDNA) DNA 1: AGAAGGTATTTATACCAAAACCATGGTTTACATATAAATACCTTCT DNA 2: AGAAGGTATTTATATGTAAACCATGGTTTTGGTATAAATACCTTCT |  |  | 3
